Results: the supplement of paper PMC10567573

B1: KRT33B (parent)
chain: YQSYFKTIEELQQKILCSKSENAR

Variants of: B1
Test: protein stability index of a GFP-peptide fusion (GPS, HEK-293T) (PSI 1-6); higher = more stable
Conditions: c terminus: a fixed tail appended
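Further: lentivirally expressed fusions sorted by FACS into six bins by GFP to DsRed ratio, PSI derived from sequencing read proportions per bin multiplied by bin number.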

Variant | protein stability index
YQSYFKTICELQQKILCSKSENAR [E9C] | 1.79
YQSYFKTIHELQQKILCSKSENAR [E9H] | 2.25
YQSYFKTITELQQKILCSKSENAR [E9T] | 2.12
YQSYFKTIYELQQKILCSKSENAR [E9Y] | 2.33
YQSYFKTIRELQQKILCSKSENAR [E9R] | 2.99
YQSYFKTIDELQQKILCSKSENAR [E9D] | 1.9
YQSYFKTIIELQQKILCSKSENAR [E9I] | 1.9
YQSYFKTIVELQQKILCSKSENAR [E9V] | 1.98
YQSYFKTIWELQQKILCSKSENAR [E9W] | 1.71
YQSYFKTINELQQKILCSKSENAR [E9N] | 2.69
YQSYFKTIQELQQKILCSKSENAR [E9Q] | 1.98
YQSYFKTIAELQQKILCSKSENAR [E9A] | 1.98
YQSYFKTILELQQKILCSKSENAR [E9L] | 2.17
YQSYFKTIMELQQKILCSKSENAR [E9M] | 1.78
YQSYFKTIPELQQKILCSKSENAR [E9P] | 1.66
YQSYFKTISELQQKILCSKSENAR [E9S] | 2.99
YQSYFKTIKELQQKILCSKSENAR [E9K] | 2.9
YQSYFKTIGELQQKILCSKSENAR [E9G] | 1.86
YQSYFKTIFELQQKILCSKSENAR [E9F] | 1.53
YQSYFKTIEEMQQKILCSKSENAR [L11M] | 1.6
YQSYFKTIEEIQQKILCSKSENAR [L11I] | 1.81
YQSYFKTIEEYQQKILCSKSENAR [L11Y] | 1.8
YQSYFKTIEEGQQKILCSKSENAR [L11G] | 2.02
YQSYFKTIEEDQQKILCSKSENAR [L11D] | 1.79

Variant | protein stability index
YQSYFKTIEEFQQKILCSKSENAR [L11F] | 1.75
YQSYFKTIEENQQKILCSKSENAR [L11N] | 2.09
YQSYFKTIEERQQKILCSKSENAR [L11R] | 1.62
YQSYFKTIEEEQQKILCSKSENAR [L11E] | 2.01
YQSYFKTIEEVQQKILCSKSENAR [L11V] | 2.01
YQSYFKTIEETQQKILCSKSENAR [L11T] | 1.85
YQSYFKTIEEHQQKILCSKSENAR [L11H] | 2.1
YQSYFKTIEEKQQKILCSKSENAR [L11K] | 1.42
YQSYFKTIEEPQQKILCSKSENAR [L11P] | 2.06
YQSYFKTIEEAQQKILCSKSENAR [L11A] | 2.41
YQSYFKTIEEWQQKILCSKSENAR [L11W] | 2.2
YQSYFKTIEEQQQKILCSKSENAR [L11Q] | 1.71
YQSYFKTIEECQQKILCSKSENAR [L11C] | 1.53
YQSYFKTIEESQQKILCSKSENAR [L11S] | 1.84
YQSYFKTLEELQQKILCSKSENAR [I8L] | 2.41
YQSYFKTYEELQQKILCSKSENAR [I8Y] | 1.93
YQSYFKTFEELQQKILCSKSENAR [I8F] | 2.01
YQSYFKTCEELQQKILCSKSENAR [I8C] | 1.84
YQSYFKTVEELQQKILCSKSENAR [I8V] | 2.19
YQSYFKTNEELQQKILCSKSENAR [I8N] | 2.19
YQSYFKTMEELQQKILCSKSENAR [I8M] | 1.79
YQSYFKTREELQQKILCSKSENAR [I8R] | 1.9
YQSYFKTGEELQQKILCSKSENAR [I8G] | 1.78
YQSYFKTWEELQQKILCSKSENAR [I8W] | 1.94

Variant | protein stability index
YQSYFKTPEELQQKILCSKSENAR [I8P] | 2.78
YQSYFKTKEELQQKILCSKSENAR [I8K] | 2.42
YQSYFKTHEELQQKILCSKSENAR [I8H] | 2.42
YQSYFKTTEELQQKILCSKSENAR [I8T] | 1.63
YQSYFKTQEELQQKILCSKSENAR [I8Q] | 2.06
YQSYFKTAEELQQKILCSKSENAR [I8A] | 2.44
YQSYFKTSEELQQKILCSKSENAR [I8S] | 1.51
YQSYFKTEEELQQKILCSKSENAR [I8E] | 3
YQSYFKTDEELQQKILCSKSENAR [I8D] | 2.07
YQSSFKTIEELQQKILCSKSENAR [Y4S] | 1.54
YQSWFKTIEELQQKILCSKSENAR [Y4W] | 2.97
YQSVFKTIEELQQKILCSKSENAR [Y4V] | 2.19
YQSRFKTIEELQQKILCSKSENAR [Y4R] | 2.25
YQSTFKTIEELQQKILCSKSENAR [Y4T] | 1.74
YQSQFKTIEELQQKILCSKSENAR [Y4Q] | 1.58
YQSYFKTIEELWQKILCSKSENAR [Q12W] | 1.91
YQSYFKTIEELRQKILCSKSENAR [Q12R] | 2.11
YQSYFKTIEELPQKILCSKSENAR [Q12P] | 1.8
YQSYFKTIEELLQKILCSKSENAR [Q12L] | 1.79
YQSYFKTIEELKQKILCSKSENAR [Q12K] | 2.06
YQSYFKTIEELAQKILCSKSENAR [Q12A] | 2.78
YQSYFKTIEELTQKILCSKSENAR [Q12T] | 1.96
YQSYFKTIEELSQKILCSKSENAR [Q12S] | 1.96
YQSYFKTIEELCQKILCSKSENAR [Q12C] | 1.58

Variant | protein stability index
YQSYFKTIEELVQKILCSKSENAR [Q12V] | 1.98
YQSYFKTIEELHQKILCSKSENAR [Q12H] | 1.78
YQSYFKTIEELYQKILCSKSENAR [Q12Y] | 1.97
YQSYFKTIEELDQKILCSKSENAR [Q12D] | 2.07
YQSYFKTIEELIQKILCSKSENAR [Q12I] | 1.94
YQSYFKTIEELNQKILCSKSENAR [Q12N] | 1.89
YQSYFKTIEELGQKILCSKSENAR [Q12G] | 1.73
YQSYFKTIEELFQKILCSKSENAR [Q12F] | 2.98
YQSYFKTIEELMQKILCSKSENAR [Q12M] | 1.53
YQSYFKTIEELEQKILCSKSENAR [Q12E] | 2.6
YQSYFKTIEELQVKILCSKSENAR [Q13V] | 1.78
YQSYFKTIEELQSKILCSKSENAR [Q13S] | 1.86
YQSYFKTIEELQYKILCSKSENAR [Q13Y] | 1.65
YQSYFKTIEELQCKILCSKSENAR [Q13C] | 1.3
YQSYFKTIEELQAKILCSKSENAR [Q13A] | 1.79
YQSYFKTIEELQNKILCSKSENAR [Q13N] | 2.19
YQSYFKTIEELQHKILCSKSENAR [Q13H] | 2.09
YQSYFKTIEELQTKILCSKSENAR [Q13T] | 2.23
YQSYFKTIEELQGKILCSKSENAR [Q13G] | 2.09
YQSYFKTIEELQPKILCSKSENAR [Q13P] | 1.83
YQSYFKTIEELQIKILCSKSENAR [Q13I] | 1.35
YQSYFKTIEELQKKILCSKSENAR [Q13K] | 1.85
